In US20230135471A1, “UBIQUITIN VARIANTS WITH IMPROVED AFFINITY FOR 53BP1” (Integrated DNA Technologies, Inc., priority 2021, published 2023):

Target: 53BP1 fragment (a.a. 1221-1718) fused to an adenylate cyclase fragment (two-hybrid) (UniProt Q12888)
Test: cell-based or functional assay

Substance	Experiment 1 Average Enrichment [log2]	Experiment 1 Rep 1 Enrichment [log2]	Experiment 1 Rep 2 Enrichment [log2]	Experiment 2 Average Enrichment [log2]	Experiment 2 Rep 1 Enrichment [log2]	Experiment 2 Rep 2 Enrichment [log2]
i53 + S57Q two-hybrid fusion (designed binder)	0.07	0.07	0.07	0.14	0.27	0.01
i53 + L67C two-hybrid fusion (designed binder)	0.04	-0.31	0.39	0.73	0.96	0.5
i53 + A28D two-hybrid fusion (designed binder)	0.02	-0.25	0.29	-0.41	-0.24	-0.58
i53 + R74T two-hybrid fusion (designed binder)	0.33	0.4	0.26	0.31	0.25	0.38
i53 + D32A two-hybrid fusion (designed binder)	0.11	0.2	0.02	0.19	0.19	0.19
i53 + A28E two-hybrid fusion (designed binder)	0.31	0.23	0.4	0.42	0.53	0.32
i53 + N25T two-hybrid fusion (designed binder)	0.12	-0.19	0.44	0.29	0.33	0.24
i53 + E18D two-hybrid fusion (designed binder)	-0.85	-0.69	-1.02	0.14	1.65	-1.37
i53 + S49V two-hybrid fusion (designed binder)	0.52	0.8	0.23	0.49	0.52	0.45
i53 + E18W two-hybrid fusion (designed binder)	0.18	0.06	0.31	0.75	0.8	0.69
i53 + K48R two-hybrid fusion (designed binder)	0.35	0.39	0.32	0.14	0.09	0.19
i53 + D58S two-hybrid fusion (designed binder)	0.33	0.29	0.38	0.21	0.24	0.17
i53 + K48N two-hybrid fusion (designed binder)	-0.04	-0.15	0.08	0.06	0.09	0.03
i53 + N25I two-hybrid fusion (designed binder)	0.83	0.85	0.81	0.4	0.41	0.39
i53 + M1Y two-hybrid fusion (designed binder)	2.36	2.56	2.16	1	1.18	0.81
i53 + A28W two-hybrid fusion (designed binder)	0.03	0.48	-0.41	0.12	0.41	-0.17
i53 + D21E two-hybrid fusion (designed binder)	0.51	0.2	0.82	-0.23	-0.63	0.16
i53 + E34T two-hybrid fusion (designed binder)	0.12	2.15	-1.91	-3.54	-3.26	-3.83
